Source: patent US20230357429A1

How the values were obtained:
Details in all cases: remark: other sources report otherwise
[1] = biological target: T1, Human TROP2 ECD (31-274 AA), biotinylated (human), P09758; assay: ELISA: biotinylated TROP2 captured on neutravidin plate, Fab titrated, HRP secondary antibody
T1 chain: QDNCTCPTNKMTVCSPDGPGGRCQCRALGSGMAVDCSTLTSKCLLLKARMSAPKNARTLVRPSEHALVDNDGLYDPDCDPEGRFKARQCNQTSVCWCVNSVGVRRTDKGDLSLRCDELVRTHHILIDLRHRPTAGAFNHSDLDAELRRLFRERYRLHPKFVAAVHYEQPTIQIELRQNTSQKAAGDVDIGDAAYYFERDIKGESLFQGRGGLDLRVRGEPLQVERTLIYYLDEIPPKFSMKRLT

[2] = biological target: T1, Human TROP2 ECD (31-274 AA), …; assay: ELISA, biotinylated TROP2 ECD on neutravidin plate (BLI cell of the same column: low binding); ELISA: no half-maximal signal up to 1000 nM Fab
[3] = biological target: T1, Human TROP2 ECD (31-274 AA), …; assay: ELISA, biotinylated TROP2 ECD on neutravidin plate, Fab titrated

Measured: EC50

B1: TBD-4 (anti-TROP2 Fab, LC H91A) (Fab)
light: DIQLTQSPSSLSASVGDRVSITCKASQDVSIAVAWYQQKPGKAPKLLIYSASYRYTGVPDRFSGSGSGTDFTLTISSLQPEDFAVYYCQQAYITPLTFGAGTKVEIKRTVAAPSVFIFPPSDEQLKSGTASVVCLLNNFYPREAKVQWKVDNALQSGNSQESVTEQDSKDSTYSLSSTLTLSKADYEKHKVYACEVTHQGLSSPVTKSFNRGEC
heavy: QVQLQQSGSELKKPGASVKVSCKASGYTFTNYGMNWVKQAPGQGLKWMGWINTYTGEPTYTDDFKGRFAFSLDTSVSTAYLQISSLKADDTAVYFCARGGFGSSYWYFDVWGQGSLVTVSSASTKGPSVFPLAPSSKSTSGGTAALGCLVKDYFPEPVTVSWNSGALTSGVHTFPAVLQSSGLYSLSSVVTVPSSSLGTQTYICNVNHKPSNTKVDKKVEPKSC
modifications: here or on the partner: biotinylated (site not stated)
> 1000 nM: all assays above

B2: TBD-5 (anti-TROP2 Fab, LC Y92A) (Fab)
light: DIQLTQSPSSLSASVGDRVSITCKASQDVSIAVAWYQQKPGKAPKLLIYSASYRYTGVPDRFSGSGSGTDFTLTISSLQPEDFAVYYCQQHAITPLTFGAGTKVEIKRTVAAPSVFIFPPSDEQLKSGTASVVCLLNNFYPREAKVQWKVDNALQSGNSQESVTEQDSKDSTYSLSSTLTLSKADYEKHKVYACEVTHQGLSSPVTKSFNRGEC
heavy: QVQLQQSGSELKKPGASVKVSCKASGYTFTNYGMNWVKQAPGQGLKWMGWINTYTGEPTYTDDFKGRFAFSLDTSVSTAYLQISSLKADDTAVYFCARGGFGSSYWYFDVWGQGSLVTVSSASTKGPSVFPLAPSSKSTSGGTAALGCLVKDYFPEPVTVSWNSGALTSGVHTFPAVLQSSGLYSLSSVVTVPSSSLGTQTYICNVNHKPSNTKVDKKVEPKSC
modifications: here or on the partner: biotinylated (site not stated)
> 1000 nM: all assays above
